Source: patent publication US5604098

Target: T1, CviJ I restriction endonuclease (Chlorella virus IL-3A (infected Chlorella NC64A)) (UniProt P52283)
T1 sequence: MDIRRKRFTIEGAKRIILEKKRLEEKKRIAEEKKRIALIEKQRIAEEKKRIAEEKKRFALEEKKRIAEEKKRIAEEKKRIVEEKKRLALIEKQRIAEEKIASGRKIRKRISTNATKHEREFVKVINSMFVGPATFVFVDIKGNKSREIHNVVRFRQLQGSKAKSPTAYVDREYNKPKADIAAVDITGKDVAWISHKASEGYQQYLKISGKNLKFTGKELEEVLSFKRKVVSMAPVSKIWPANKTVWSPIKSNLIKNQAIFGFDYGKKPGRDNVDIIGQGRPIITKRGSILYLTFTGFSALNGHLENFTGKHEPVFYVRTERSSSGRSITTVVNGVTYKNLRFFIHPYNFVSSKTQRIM
Assay: cleavage_in_vitro
Settings: for activity (% of cleaved junctions): CviJ I* complete digest; for activity (% of cloned junctions): CviJ I** partial digest

AGCA (double strand) [AGCA site]
activity (% of cleaved junctions) (13 cleaved, 5 not cleaved): 6.5
activity (% of cloned junctions): 1.3

AGCC (double strand) [AGCC site]
activity (% of cleaved junctions) (23 cleaved, 1 not cleaved): 11.5
activity (% of cloned junctions) (Mg, ATP, DTT, 20% DMSO, low salt): 17.1

AGCG (double strand) [AGCG site]
activity (% of cleaved junctions) (12 cleaved, 11 not cleaved): 6
activity (% of cloned junctions): 0

AGCT (double strand) [AGCT site]
activity (% of cleaved junctions) (35 cleaved, 0 not cleaved): 17.5
activity (% of cloned junctions): 32.9

CGCA (double strand) [CGCA site]
activity (% of cleaved junctions) (12 not cleaved): 0
activity (% of cloned junctions): 0

CGCC (double strand) [CGCC site]
activity (% of cleaved junctions) (11 cleaved, 4 not cleaved): 5.5
activity (% of cloned junctions): 0

CGCG (double strand) [CGCG site]
activity (% of cleaved junctions) (27 not cleaved): 0
activity (% of cloned junctions): 0

CGCT (double strand) [CGCT site]
activity (% of cleaved junctions) (17 cleaved, 7 not cleaved): 8.5
activity (% of cloned junctions): 2.6

GGCA (double strand) [GGCA site]
activity (% of cleaved junctions) (11 cleaved, 3 not cleaved): 5.5
activity (% of cloned junctions): 0

GGCC (double strand) [GGCC site]
activity (% of cleaved junctions) (24 cleaved, 1 not cleaved): 12
activity (% of cloned junctions): 21.1

GGCG (double strand) [GGCG site]
activity (% of cleaved junctions) (18 cleaved, 8 not cleaved): 9
activity (% of cloned junctions): 5.2

GGCT (double strand) [GGCT site]
activity (% of cleaved junctions) (13 cleaved, 0 not cleaved): 6.5
activity (% of cloned junctions): 15.8

TGCA (double strand) [TGCA site]
activity (% of cleaved junctions) (19 not cleaved): 0
activity (% of cloned junctions): 0

TGCC (double strand) [TGCC site]
activity (% of cleaved junctions) (13 cleaved, 10 not cleaved): 6.5
activity (% of cloned junctions): 2.6

TGCG (double strand) [TGCG site]
activity (% of cleaved junctions) (3 not cleaved): 0
activity (% of cloned junctions): 0

TGCT (double strand) [TGCT site]
activity (% of cleaved junctions) (10 cleaved, 5 not cleaved): 5
activity (% of cloned junctions): 1.3
